Assay results published in the supplement of paper PMC6379048.

Tests used:
Assay in all cases: Kd (EC50 corrected by depletion factor)
SRSF10 = SRSF10 (UniProt O75494)
How it was run: (§1)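 To obtain EC50, data were fitted with a four-parameter log-logistic model; Kd was then EC50 multiplied by a protein-dependent depletion factor. Beforehand, free RNA oligos (0 nM to 30 μM) were pre-incubated with HEK293-FT lysate (2.5 mg protein/well) for 1 h at 4°C. The lysate then spent 30 min at 4°C with the same 5′-amino-C6 oligos coupled to NHS-Sepharose beads, and bound proteins were quantified by label-free LC-MS/MS, normalised to the control.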

GPATCH11 = GPATCH11 (UniProt Q8N954)
How it was run: as §1

HNRNPR = target: T1, HNRNPR (UniProt O43390)
T1 sequence: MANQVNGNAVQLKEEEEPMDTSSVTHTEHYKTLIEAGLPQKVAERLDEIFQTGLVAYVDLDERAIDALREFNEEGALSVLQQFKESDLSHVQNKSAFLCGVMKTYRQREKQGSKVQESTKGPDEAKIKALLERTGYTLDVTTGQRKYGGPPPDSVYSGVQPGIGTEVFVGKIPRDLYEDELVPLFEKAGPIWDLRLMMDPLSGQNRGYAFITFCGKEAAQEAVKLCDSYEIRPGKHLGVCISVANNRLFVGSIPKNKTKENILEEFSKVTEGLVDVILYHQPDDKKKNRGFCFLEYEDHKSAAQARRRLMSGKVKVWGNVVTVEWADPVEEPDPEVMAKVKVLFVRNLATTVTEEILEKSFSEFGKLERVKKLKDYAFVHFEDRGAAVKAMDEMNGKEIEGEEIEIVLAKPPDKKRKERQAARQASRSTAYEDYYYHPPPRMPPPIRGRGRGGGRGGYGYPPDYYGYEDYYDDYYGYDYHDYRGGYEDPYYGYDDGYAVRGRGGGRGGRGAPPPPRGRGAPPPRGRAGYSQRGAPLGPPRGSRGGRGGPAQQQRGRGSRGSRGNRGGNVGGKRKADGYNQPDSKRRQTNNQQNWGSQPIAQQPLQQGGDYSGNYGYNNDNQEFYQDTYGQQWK
How it was run: as §1

SF3B2 = target: T2, SF3B2 (UniProt Q13435)
T2 sequence: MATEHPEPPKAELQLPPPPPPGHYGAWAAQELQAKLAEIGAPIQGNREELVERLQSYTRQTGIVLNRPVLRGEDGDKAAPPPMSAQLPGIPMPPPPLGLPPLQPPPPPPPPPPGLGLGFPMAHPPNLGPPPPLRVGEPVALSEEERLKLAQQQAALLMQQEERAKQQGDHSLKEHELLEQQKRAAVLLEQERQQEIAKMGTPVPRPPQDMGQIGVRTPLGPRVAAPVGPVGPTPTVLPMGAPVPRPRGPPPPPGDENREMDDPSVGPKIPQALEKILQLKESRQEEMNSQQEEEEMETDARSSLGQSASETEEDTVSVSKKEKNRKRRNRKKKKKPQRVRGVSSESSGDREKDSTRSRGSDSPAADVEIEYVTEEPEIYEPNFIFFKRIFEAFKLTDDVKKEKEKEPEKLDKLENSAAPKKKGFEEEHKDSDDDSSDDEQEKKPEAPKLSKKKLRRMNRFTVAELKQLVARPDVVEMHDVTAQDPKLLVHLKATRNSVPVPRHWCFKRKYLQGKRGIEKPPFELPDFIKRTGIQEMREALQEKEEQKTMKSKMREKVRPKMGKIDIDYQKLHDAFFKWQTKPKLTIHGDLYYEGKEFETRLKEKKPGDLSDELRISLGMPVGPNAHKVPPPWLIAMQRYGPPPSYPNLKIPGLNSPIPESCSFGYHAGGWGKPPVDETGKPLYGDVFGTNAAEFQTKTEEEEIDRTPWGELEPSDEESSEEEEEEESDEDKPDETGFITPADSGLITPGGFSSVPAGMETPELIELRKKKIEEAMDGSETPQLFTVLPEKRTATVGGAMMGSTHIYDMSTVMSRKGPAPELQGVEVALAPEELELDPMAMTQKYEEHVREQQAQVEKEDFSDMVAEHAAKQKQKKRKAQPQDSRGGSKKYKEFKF
How it was run: as §1

CPSF4 = CPSF4 (UniProt O95639)
How it was run: as §1

P4HA1 = P4HA1 (UniProt P13674)
How it was run: as §1

U2AF2 = U2AF2 (UniProt P26368)
How it was run: as §1

RPS18 = RPS18 (UniProt P62269)
How it was run: as §1

MRPL38 = MRPL38 (UniProt Q96DV4)
How it was run: as §1

ICT1 = ICT1 (UniProt Q14197)
How it was run: as §1

MRPL37 = MRPL37 (UniProt Q9BZE1)
How it was run: as §1

ZCRB1 = target: T3, ZCRB1 (UniProt Q8TBF4)
T3 sequence: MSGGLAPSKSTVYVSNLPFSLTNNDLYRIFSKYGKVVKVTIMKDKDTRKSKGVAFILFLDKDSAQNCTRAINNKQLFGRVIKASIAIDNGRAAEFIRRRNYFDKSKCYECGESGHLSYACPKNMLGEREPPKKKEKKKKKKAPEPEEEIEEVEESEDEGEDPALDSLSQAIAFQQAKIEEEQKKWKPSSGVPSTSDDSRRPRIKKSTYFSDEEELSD
How it was run: as §1

Chain of GPATCH11 (Q8N954 whole entry): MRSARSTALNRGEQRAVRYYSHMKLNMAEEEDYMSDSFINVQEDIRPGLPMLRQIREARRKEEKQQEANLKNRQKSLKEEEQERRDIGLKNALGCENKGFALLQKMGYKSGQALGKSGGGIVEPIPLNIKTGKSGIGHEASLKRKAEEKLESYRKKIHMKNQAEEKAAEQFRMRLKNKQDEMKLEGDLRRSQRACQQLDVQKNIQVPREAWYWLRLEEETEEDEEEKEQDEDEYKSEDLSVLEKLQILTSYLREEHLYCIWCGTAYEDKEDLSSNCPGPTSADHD
Chain of CPSF4 (O95639 whole entry): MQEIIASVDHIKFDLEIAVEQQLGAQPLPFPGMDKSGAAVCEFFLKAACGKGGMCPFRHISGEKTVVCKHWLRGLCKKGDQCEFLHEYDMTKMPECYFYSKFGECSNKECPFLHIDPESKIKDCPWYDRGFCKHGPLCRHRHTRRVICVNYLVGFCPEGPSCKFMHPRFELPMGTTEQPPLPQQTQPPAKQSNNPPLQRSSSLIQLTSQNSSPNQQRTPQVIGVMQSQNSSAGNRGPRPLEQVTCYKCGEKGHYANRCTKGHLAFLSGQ
Chain of U2AF2 (P26368 whole entry): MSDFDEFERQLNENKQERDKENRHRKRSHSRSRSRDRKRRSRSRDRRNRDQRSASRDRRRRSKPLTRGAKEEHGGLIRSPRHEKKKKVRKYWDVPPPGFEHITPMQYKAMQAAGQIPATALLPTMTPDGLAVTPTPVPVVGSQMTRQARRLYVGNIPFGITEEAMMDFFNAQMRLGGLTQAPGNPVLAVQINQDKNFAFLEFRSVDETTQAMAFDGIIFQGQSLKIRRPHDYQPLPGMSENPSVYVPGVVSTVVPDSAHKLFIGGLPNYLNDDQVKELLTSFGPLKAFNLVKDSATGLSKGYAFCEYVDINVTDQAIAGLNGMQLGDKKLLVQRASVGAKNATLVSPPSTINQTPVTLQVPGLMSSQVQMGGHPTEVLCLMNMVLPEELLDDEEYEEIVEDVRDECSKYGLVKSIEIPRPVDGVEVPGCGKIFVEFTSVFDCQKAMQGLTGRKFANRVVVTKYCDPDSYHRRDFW
Chain of P4HA1 (P13674 whole entry): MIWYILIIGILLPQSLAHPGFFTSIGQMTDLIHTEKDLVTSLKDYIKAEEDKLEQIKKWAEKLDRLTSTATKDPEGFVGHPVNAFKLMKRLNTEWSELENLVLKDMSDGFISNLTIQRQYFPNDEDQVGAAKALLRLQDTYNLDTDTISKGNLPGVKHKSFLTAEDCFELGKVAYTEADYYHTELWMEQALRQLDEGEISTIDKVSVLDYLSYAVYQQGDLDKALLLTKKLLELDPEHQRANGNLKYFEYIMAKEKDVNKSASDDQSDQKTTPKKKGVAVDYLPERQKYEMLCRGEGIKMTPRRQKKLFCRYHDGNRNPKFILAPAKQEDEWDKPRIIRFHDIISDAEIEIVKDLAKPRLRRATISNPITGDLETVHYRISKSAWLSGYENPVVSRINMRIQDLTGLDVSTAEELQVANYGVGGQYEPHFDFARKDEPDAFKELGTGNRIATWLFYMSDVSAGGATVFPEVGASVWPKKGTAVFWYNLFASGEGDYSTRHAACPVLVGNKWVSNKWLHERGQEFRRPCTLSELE
Chain of SRSF10 (O75494 whole entry): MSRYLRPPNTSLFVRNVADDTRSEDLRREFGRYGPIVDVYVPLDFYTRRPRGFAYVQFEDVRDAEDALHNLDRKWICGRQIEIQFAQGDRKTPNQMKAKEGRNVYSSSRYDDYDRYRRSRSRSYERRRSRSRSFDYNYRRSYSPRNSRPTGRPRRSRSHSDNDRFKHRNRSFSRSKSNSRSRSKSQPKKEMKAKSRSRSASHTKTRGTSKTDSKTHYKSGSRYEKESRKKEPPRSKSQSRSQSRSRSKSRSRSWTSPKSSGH

For AAUAAA, the Kd (SRSF10) was 156 nM, the Kd (GPATCH11) was 32.5 nM and the Kd (HNRNPR) was 677 nM. It also gave a Kd (SF3B2) of 719 nM, a Kd (CPSF4) of 5.95 nM and a Kd (P4HA1) of 23.8 nM. It also gave a Kd (U2AF2) of 106 nM.

Work on CUGUCCU yielded a Kd (RPS18) of 42.6 nM, a Kd (MRPL38) of 40.7 nM and a Kd (ICT1) of 48.1 nM. It also gave a Kd (MRPL37) of 76.1 nM.

With UAUUUAU the Kd (ZCRB1) was 3450 nM.
